The target of this test is recombinant human renin (human) (UniProt P00797).
Chain of UniProt P00797 (P00797 67-406): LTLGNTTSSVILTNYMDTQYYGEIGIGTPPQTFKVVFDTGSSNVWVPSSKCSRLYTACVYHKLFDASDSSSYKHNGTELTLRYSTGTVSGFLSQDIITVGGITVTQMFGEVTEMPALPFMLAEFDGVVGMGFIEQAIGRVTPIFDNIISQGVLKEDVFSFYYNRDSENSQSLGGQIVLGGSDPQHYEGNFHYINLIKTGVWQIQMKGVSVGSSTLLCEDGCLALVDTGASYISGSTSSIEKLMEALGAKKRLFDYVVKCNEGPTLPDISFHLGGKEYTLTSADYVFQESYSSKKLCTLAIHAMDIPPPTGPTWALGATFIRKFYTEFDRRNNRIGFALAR

In the case of “recombinant ovine angiotensinogen expressed in CHO cells (natural protein)”, the Km (steady-state kinetics of human renin, 25 pM, with 0-0.4 μM oANG at 37 °C, pH 7.2; angiotensin I generated, measured by ELISA; Hanes-Woolf plot) worked out at 0.072 μM.

The record behind these values is PMC4823841.
